Experimental data as given in PMC7492416 (Nature plants, 2020).

T1: BIR2-mCherry (UniProt Q9LSI9 29-605)
T1 sequence (looked up): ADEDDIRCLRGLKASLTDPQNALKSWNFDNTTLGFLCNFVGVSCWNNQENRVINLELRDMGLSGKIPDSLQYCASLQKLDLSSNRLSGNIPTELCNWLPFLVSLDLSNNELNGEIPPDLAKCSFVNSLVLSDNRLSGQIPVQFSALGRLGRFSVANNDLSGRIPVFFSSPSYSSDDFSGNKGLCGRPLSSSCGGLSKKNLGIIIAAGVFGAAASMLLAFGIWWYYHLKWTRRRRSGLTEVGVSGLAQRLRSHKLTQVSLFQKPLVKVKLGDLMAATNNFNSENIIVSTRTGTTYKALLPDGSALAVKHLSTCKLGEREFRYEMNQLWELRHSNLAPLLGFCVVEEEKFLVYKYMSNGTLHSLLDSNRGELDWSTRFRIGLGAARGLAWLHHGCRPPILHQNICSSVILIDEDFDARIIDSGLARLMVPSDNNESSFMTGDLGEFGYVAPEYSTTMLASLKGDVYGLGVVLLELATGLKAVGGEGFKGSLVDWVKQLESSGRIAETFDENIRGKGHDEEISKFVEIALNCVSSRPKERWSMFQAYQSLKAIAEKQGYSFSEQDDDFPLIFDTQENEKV

T2: SUMM2-GFP (Arabidopsis thaliana (Col-0 cDNA), UniProt P60838 1-894)
T2 sequence (looked up): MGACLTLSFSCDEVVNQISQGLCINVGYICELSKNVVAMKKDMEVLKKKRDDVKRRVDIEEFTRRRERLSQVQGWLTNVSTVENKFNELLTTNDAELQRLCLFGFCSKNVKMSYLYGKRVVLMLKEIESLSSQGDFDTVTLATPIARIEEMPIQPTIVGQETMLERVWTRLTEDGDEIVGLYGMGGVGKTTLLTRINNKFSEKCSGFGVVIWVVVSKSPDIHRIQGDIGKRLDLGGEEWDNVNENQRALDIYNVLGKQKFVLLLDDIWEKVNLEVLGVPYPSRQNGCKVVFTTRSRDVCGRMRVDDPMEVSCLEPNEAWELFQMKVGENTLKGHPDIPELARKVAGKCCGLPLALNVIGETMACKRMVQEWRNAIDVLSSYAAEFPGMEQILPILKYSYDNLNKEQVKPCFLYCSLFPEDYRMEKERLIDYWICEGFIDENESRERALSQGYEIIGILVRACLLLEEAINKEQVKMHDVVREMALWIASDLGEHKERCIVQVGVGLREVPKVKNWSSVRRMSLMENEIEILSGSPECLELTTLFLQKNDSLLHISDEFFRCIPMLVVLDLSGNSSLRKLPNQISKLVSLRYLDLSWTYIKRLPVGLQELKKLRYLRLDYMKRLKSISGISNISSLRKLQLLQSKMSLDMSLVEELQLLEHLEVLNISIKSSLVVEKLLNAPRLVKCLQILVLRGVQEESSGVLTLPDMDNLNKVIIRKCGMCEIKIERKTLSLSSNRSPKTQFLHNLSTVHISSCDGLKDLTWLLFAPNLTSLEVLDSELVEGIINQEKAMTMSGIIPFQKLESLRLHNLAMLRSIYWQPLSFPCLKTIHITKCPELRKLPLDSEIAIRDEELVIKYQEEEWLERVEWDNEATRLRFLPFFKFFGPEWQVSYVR

B1: BAK1-GFP (receptor, Arabidopsis, UniProt Q94F62 26-615, looked up)
chain: NAEGDALSALKNSLADPNKVLQSWDATLVTPCTWFHVTCNSDNSVTRVDLGNANLSGQLVMQLGQLPNLQYLELYSNNITGTIPEQLGNLTELVSLDLYLNNLSGPIPSTLGRLKKLRFLRLNNNSLSGEIPRSLTAVLTLQVLDLSNNPLTGDIPVNGSFSLFTPISFANTKLTPLPASPPPPISPTPPSPAGSNRITGAIAGGVAAGAALLFAVPAIALAWWRRKKPQDHFFDVPAEEDPEVHLGQLKRFSLRELQVASDNFSNKNILGRGGFGKVYKGRLADGTLVAVKRLKEERTQGGELQFQTEVEMISMAVHRNLLRLRGFCMTPTERLLVYPYMANGSVASCLRERPESQPPLDWPKRQRIALGSARGLAYLHDHCDPKIIHRDVKAANILLDEEFEAVVGDFGLAKLMDYKDTHVTTAVRGTIGHIAPEYLSTGKSSEKTDVFGYGVMLLELITGQRAFDLARLANDDDVMLLDWVKGLLKEKKLEALVDVDLQGNYKDEEVEQLIQVALLCTQSSPMERPKMSEVVRMLEGDGLAERWEEWQKEEMFRQDFNYPTHHPAVSGWIIGDSTSQIENEYPSGPR
B2: LET1-GFP (receptor, Arabidopsis thaliana (Col-0 cDNA), UniProt O22187 29-834, looked up)
chain: DTSTYTRPENFYVNCGSDSNVFYGGQTFVGDTNSSTNSVSFTNKGTEVINDQSSVAPEIYRTVRIFRHPSSYKFKLDSLGLHFVRLHFSVVFSRADLLTARFTVSATSGSNHHLKSFSPQNLTNTPRVEEFLLMMNSLEFEIRFVPDHSSLALINAIEVFSAPDDLEIPSASDKNLHTIYRLNVGGEKITPDNDTLGRTWLPDDDDFLYRKDSARNINSTQTPNYVGGLSSATDSTAPDFVYKTAKAMNRSSNEQVGMLMNVTWSFKVKSNHRHFIRIHFSDILSNLSNSDSDFYLFVNGYWRVDVKPSEQPRLASPFFKDVVNVSDGSGLLNISIGTKEANKDAGFLNGLEMMEVLSKSGSDYSNRSSSRVHIITGCAVAAAAASALVFSLLFMVFLKRRRSKKTKPEVEGTVWSPLPLHRGGSSDNRPISQYHNSPLRNLHLGLTIPFTDILSATNNFDEQLLIGKGGFGYVYKAILPDGTKAAIKRGKTGSGQGILEFQTEIQVLSRIRHRHLVSLTGYCEENSEMILVYEFMEKGTLKEHLYGSNLPSLTWKQRLEICIGAARGLDYLHSSGSEGAIIHRDVKSTNILLDEHNIAKVADFGLSKIHNQDESNISINIKGTFGYLDPEYLQTHKLTEKSDVYAFGVVLLEVLFARPAIDPYLPHEEVNLSEWVMFCKSKGTIDEILDPSLIGQIETNSLKKFMEIAEKCLKEYGDERPSMRDVIWDLEYVLQLQMMTNRREAHEEDSTAINSGGSLVAPRLMVSDSFSTNSIFQNGDESKNRFGFTDSSETRVFSQLKISDAR
B3: MEKK2-mCherry (natural protein, Arabidopsis thaliana (Col-0 cDNA), UniProt O81472 1-773, looked up)
chain: MKKSSDKSPVRQHDTATQINSDAVSSSTSFTDSDSTCSFLTPSMEFPDRISFRRIDFSEAAPTGVVLPSTSSELTRSNSSENKIPNEDISVSTSSRYLVFDKILALMKKSPGRRGDKTSPARRLDRSDAVRRNIDYDAGEDSSSLLITRSLDFPNRTSFRVDGVDDGEIDRIYQYIGVSGPEDFAISSDAWKARMEHERSSSDVVNKLKSLDLDSREAGPSGGVVASSSMNHKFQGHDLSEAGSIGVVVASNFTLSESNKIENLNSLRDKEIVDGDMVENRCGIERKPTILVKSRGYLVHNDDVGVGGGIKGVRPPVLNVPRADKEVVDGGTVESKSGIEWKPTILVKSKGYLVSNDGGIKGVTSPVLNLRPTDKEVVDSGTVENRRGIKGVRPSVLKPPPVMKLPPVDLPGSSWDILTHFAPDSEIVRRPSSSSSSENGCDEEEAEDDKVEKEETGDMFIQLEDTTDEACSFTTNEGDSSSTVSNTSPICVSGGSINTSWQKGQLLRQGSFGSVYEAISEDGDFFAVKEVSLLDQGSQAQECIQQLEGEIALLSQLEHQNILRYRGTDKDGSNLYIFLELVTQGSLLELYRRYQIRDSLISLYTKQILDGLKYLHHKGFIHRDIKCATILVDANGTVKLADFGLAKVSKLNDIKSRKETLFWMAPEVINRKDNDGYRSPADIWSLGCTVLEMCTGQIPYSDLEPVEALFRIRRGTLPEVPDTLSLDARHFILKCLKLNPEERPTATELLNHPFVRRPLPSSGSGSTSPLIRR

Legend:
Experiment in all cases: FRET or BRET
BIR2-mCherry = biological target: T1, BIR2-mCherry
MEKK2-mCherry = biological target: B3
SUMM2-GFP = biological target: T2, SUMM2-GFP

Binder B1 has an FRET efficiency (BIR2-mCherry) of 13.5%.

B2 showed an FRET efficiency (MEKK2-mCherry) of 13.1 ± 1.76%.

For B3, the FRET efficiency (SUMM2-GFP) was 7.99 ± 0.19%.
